Data: patent US20210040161A1 (CALIFORNIA INSTITUTE OF TECHNOLOGY, published 2021)

Experiments:
[1] = target: the molecule itself; assay: CuCl2 crosslinking in E. coli lysate, SDS-PAGE, anti-HA Western; full-length homodimer band
TlpA_CC R179E (G1B) = target: T1, TlpA_CC R179E (G1B); assay: CD melting curve at 222 nm, purified coiled-coil domains, 3 uM in PBS
T1 construct: Purified coiled-coil domain of TlpA used for CD; The entry already holds the initiating Met, the R179E mutation (numbered on full-length TlpA), C-terminal Leu-Gly and a His6 tag; also called TlpA-G1B (R179E); R179E variant
T1 chain: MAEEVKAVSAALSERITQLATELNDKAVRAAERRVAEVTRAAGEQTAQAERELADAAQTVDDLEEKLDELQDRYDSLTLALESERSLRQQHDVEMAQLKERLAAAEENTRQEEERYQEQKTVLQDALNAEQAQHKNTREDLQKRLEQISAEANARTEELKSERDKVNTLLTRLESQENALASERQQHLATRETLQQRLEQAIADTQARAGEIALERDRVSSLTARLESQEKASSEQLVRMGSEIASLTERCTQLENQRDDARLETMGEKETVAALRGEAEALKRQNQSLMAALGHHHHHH

B1: wild-type TlpA, full length, C-terminal HA tag (crosslinking construct) (other)
chain: MRPATYEPEQIIEAGLALQAEGRNITGFALRNQVGGGNPTRLRQIWDEYQASQSTVVTEPVAELPVEVAEEVKAVSAALSERITQLATELNDKAVRAAERRVAEVTRAAGEQTAQAERELADAAQTVDDLEEKLDELQDRYDSLTLALESERSLRQQHDVEMAQLKERLAAAEENTRQREERYQEQKTVLQDALNAEQAQHKNTREDLQKRLEQISAEANARTEELKSERDKVNTLLTRLESQENALASERQQHLATRETLQQRLEQAIADTQARAGEIALERDRVSSLTARLESQEKASSEQLVRMGSEIASLTERCTQLENQRDDARLETMGEKETVAALRGEAEALKRQNQSLMAALSGNKQTGGQNA
notes: also called wt; not shown: C-terminal HA tag
Q: Does B1 bind [1]?
A: Result: binds

B2: TlpA_CC E180R (G1A) (designed binder)
chain: MAEEVKAVSAALSERITQLATELNDKAVRAAERRVAEVTRAAGEQTAQAERELADAAQTVDDLEEKLDELQDRYDSLTLALESERSLRQQHDVEMAQLKERLAAAEENTRQRRERYQEQKTVLQDALNAEQAQHKNTREDLQKRLEQISAEANARTEELKSERDKVNTLLTRLESQENALASERQQHLATRETLQQRLEQAIADTQARAGEIALERDRVSSLTARLESQEKASSEQLVRMGSEIASLTERCTQLENQRDDARLETMGEKETVAALRGEAEALKRQNQSLMAALGHHHHHH
notes: Purified coiled-coil domain of TlpA used for CD; The entry already holds the initiating Met, the E180R mutation (numbered on full-length TlpA), C-terminal Leu-Gly and a His6 tag; also called TlpA-G1A (E180R); E180R variant
Q: Does B2 bind (TlpA_CC R179E (G1B))?
A: Result: binds
